From a protein production outcome set (Wang et al. 2014) come the findings set out here.

A short description of this series: label from the status in PepcDB records.

For the sequence “MIGDYERFKQLKKKVAEALNISEEELDRMIDKKIEENGGIILKDAALMMIAKEHGVYGEEKNDEEFLISDIEEGQIGVEITGVITDISEIKTFKRRDGSLGKYKRITIADKSGTIRMTLWDDLAELDVKVGDVIKIERARARKWRNNLELSSTSETKIKKLENYEGELPEIKDTYNIGELSPGMTATFEGEVISALPIKEFKRADGSIGKLKSFIVRDETGSIRVTLWDNLTDIDVGRGDYVRVRGYIREGYYGGLECTANYVEILKKGEKIESEEVNIEDLTKYEDGELVSVKGRVIAISNKKSVDLDGEIAKVQDIILDNGTGRVRVSFWRGKTALLENIKEGDLVRITNCRVKTFYDREGNKRTDLVATLETEVIKDENIEAPEYELKYCKIEDIYNRDVDWNDINLIAQVVEDYGVNEIEFEDKVRKVRNLLLEDGTGRIRLSLWDDLAEIEIKEGDIVEILHAYAKERGDYIDLVIGKYGRIIINPEGVEIKTNRKFIADIEDGETVEVRGAVVKILSDTLFLYLCPNCRKRVVEIDGIYNCPICGDVEPEEILRLNFVVDDGTGTLLCRAYDRRVEKMLKMNREELKNLTIEMVEDEILGEEFVLYGNVRVENDELIMVVRRVNDVDVEKEIRILEEME”, the protein production entry was “failed”. To “MIGKRFFQTTSKKIAFAFDIDGVLFRGKKPIAGASDALKLLNRNKIPYILLTNGGGFSERARTEFISSKLDVDVSPLQIIQSHTPYKSLVNKYSRILAVGTPSVRGVAEGYGFQDVVHQTDIVRYNRDIAPFSGLSDEQVMEYSRDIPDLTTKKFDAVLVFNDPHDWAADIQIISDAINSENGMLNTLRNEKSGKPSIPIYFSNQDLLWANPYKLNRFGQGAFRLLVRRLYLELNGEPLQDYTLGKPTKLTYDFAHHVLIDWEKRLSGKIGQSVKQKLPLLGTKPSTSPFHAVFMVGDNPASDIIGAQNYGWNSCLVKTGVYNEGDDLKECKPTLIVNDVFDAVTKTLEKYA” belongs “not failed”. To “MIGLNTAAIYILQTLGSLYLLIVLLRFILQLVRADFYNPLSQFIVRATKPLLNPLRRIIPGFGGIDLASLVLAILIQLVLMILILMLMGYGVGGFIMQLLIWSIIAVTSLFLKVFFFALIISVILSWVAPGSYNPGAQLVNQICEPLLMPFRKLLPNLGGLDLSPIFAFLALKLIDMLVINNLAAMTGMPQQLSIFL” belongs “failed”; to “MIGLNTAAIYVLQTLGSLYLLIILLRFVLQLVRANFYNPLCQFIVRATQPLLKPLRRIIPSLFGLDMSSLVLAIIVQMILMALTLLLMFGTTGDPLHLLLWSIIGVTALFLKIFFFALIISVILSWVAPGSHNPGAELVNQICEPALAPFRKIVPNLGGLDISPILAFLVLKLLDMLVINNLAAMSNMPDVLRLLM”, “failed”.

Turning to “MIGQTDQNIVITYSANIQQVKILYVDEKGSEVSSMLLKGNTDQTVNVSYSVPDHWIAISGQDSPLQYTFKAKDNKNIVIRIGHKLEDQENDIHKIIRNVNIVNPDGSVAKVSQTAIFTRVHQRDEVTGEEVYGNWDKISQDFNAIDIPKIFGYTATSSVGKMTVTPDSQSENITITYTADIQNNKIVIIDDESHGSQINTVGFTGKTGKSIAWQVTIPENYDLAAGGKISGNYTFNAVNQIPIEVHVRHKHVQDDESKSVTRTIVTNLPGLDKSEIVQTVTFSRIIDKDLVDGN”, the protein production entry is given as “failed”.

As for “MIHAVAPCCPHAPRTTWEFHLRLLPLATALTLAVAMGVTPAQENRLPDIGSSAGELLTPARQAEYGKMMLAELRNYDYVLDDPLITDWLQTMGTRLGANSDQPQQPFTFFMLRDRQINAFATLGGYVAVNAGLVLTAEREDEVAAVLSHEIAHVTQQHVLRAVERAQRDQIPILLGMLAAVVAAQQAGGNSKGDATMATITSAMGLMQQRQIDYTRSNESEADRLGIRTLARSGYDVDAMAGFFERMSVAMRANEGGYSAPDFLQTHPVTVTRISEAKARAEQMKKNTVVLTTSVPGGSRQERVDPADPSLSEPLSHNGNALLPYALRLPVDALSRGADQQGFDWAKERLRVLSAATPDAAIREYENLRRSAKQGLSDAQRYGLALAKLRNSGGRPSEPVAELSSLLEAHPDNLWLALGLSQAQARVGQREAANARFDALLKQLPNNRAVALTYASALNEQASKESGQRARQVLEPLVHRSSDDPLLQQSYARACELSGDQLRASEAYAEAAFLNGRAEQALIQLEALKKKDLDYVTRARVDARIAAITPTVLELRRQGIRDPDLSTR”, the protein production result is on record as “failed”.

In the case of “MIHVREFQASDSDVVLHLLDLKDIINSSSFSEKVFQLSESGDFLGLVAEANQSGKHQVVGCAFLRLLETISRGLHCQIEELAIDKAWLHQGVGKSLMETATSWAKERGVGDIYVDSPYASIAVKEGIDSVFVRDEVLEVAQQYEAEKEELQESLKKQYNTTISKLEKEYEAKKQQQDETIHNLQTQLEDATQYLEEQQAEENELLNIDPSSPRNHTGPYPRGRGFWGTLCFPIRKTCGPGSCLRLPSGPASVRGSTDRSN”, the protein production result is reported as “not failed”. To “MIHWRNCLASAVPKLAVIAHDLIQVWVCWVALHAARYSMLVHPPGLPYVDWRTLVVLIAQAVVFWRVGLYRGLWRFASVPDLWNIFKSAFSGLIVIVLVLSVTRFEGVPLSVLVVYPFALSVLLGMPRLLYRAWKDYQLIHPVDSSERVLILGAGRTAEALVRDMRRTGAFVPVGFIDDAVYLRGAKIQGLNVLGRLEEVSTIARETAAKLLVIAIPSLDAAGMQRVVAMCESTGLPFRMVPKLIDVLEGRTLPCQLKEVSIEDLLNRKPVIPDWRLIRSWLSGKTVMVTGGGGSIGSEVCRQCARHGASRVVIVEIDELALLTIHSDLRRLFPDIEVLPILGDCGDAAVIAHALRCVRPDAVFHAAAYKQVPLLEEQLREAVRNNVLATENVARHCVAAKIQTFVFISTDKAVEPVNVLGATKRYAEMVCQSFDAKSTGTRFVTVRFGNVLDSAGSVVPLFREQIRQGGPVTVTHPDVTRYFMTISEACQLILQAAALASHGAIYTLDMGEPVRINLLAEQMIRLAGKQPGRDIVIVYTGLRPGEKMHETLFYADENYRPTAHPNILEADVRTFPQEQVLQSVMRLREAVQHYDTVEIESVISMLMPDFHAARHKKETRFETVVPFPAREVRRL” belongs “failed”; to “MIIAIPVSENRGKDSPISEHFGRAPYFAFVKVKNNAIADISVEENPLAQDHVHGAVPNFVKEKGAELVIVRGIGRRAIAAFEAMGVKVIKGASGTVEEVVNQYLSGQLKDSDYEVHDHHHHEHH”, “not failed”; to “MIIDDIINKIKSSNKIAISFHISPDGDSIGSSLGLLNGLRSIGKETYILSKEVVPESFEFLNFAREIDGNHFEVEDNTDLLITLDCGNIERLNFDTSDMISEDKKYTVINIDHHVTNDSFGDLNYINTKAASVGEIVYDLLSKMNISIDRTIAACLYTSILTDTGSFRFSNTTLNTHVVAGNLISTGLDFSEIHRKIFDNKKFEALKLQALVLNDMYLTFNNKLCVMKVTHDFIEKANAEDVDTGDLVSLGLKVNTAEVCMLLKEKDDCIKVSLRSKSYVDVRKIAEKFGGGGHIRAAGLSINSNILDAEKMILSEIQGELLEHHHHHH”, “failed”. For “MIIGCSASQKLAASVADLLDEPLCPVETRKFPDGERYIRVKEEVEGEVTVVQSTGYPQDENLMELLFMIENLKDLGADYVRAAIPYFGYGRQERRFKSGEAVSAKIVAHLLEAAGADEIVTVNLHENCLSEFFRVPVRELSAMPLIAEHISFLDDPVIIAPDKGALGHAREVSDILGCECDYMEKVRISPEVVETRVSDLDVEGKDAVVVDDIISTGGTIVNAAGILGKCGASSITVCCVHPVLVEDALLKIFSAGVERVIATDTLKSDVSEISVAPLIADVMKD” the value was “failed”; for “MIIIKNGALVTPQGLRRADLAMEGDKIVRIAAAIEPGEDDTVQDATDCWVFPGFIDGHTHMQCWTGMDWTADSFETGTRAAVCGGTTTIVDYATADRGVTMPDALVEWHHRADGTCTANYAFHMALAEWNERNRADLSAMREAGVSSFKTYFAYDHLRLDDAETLEVLEELKRVGGILCVHCENGTLVNALQKRVFEQGIHGPEGHALSRPDVCEGEAVSRLLYLAHLAGDAPVNVVHLSTKLGLEAIRAAKARGQKNIYVETCPQYLMLDDTCYLEQGEDGFAGAKYVMSPPLRHAGDRAALREALVAGEIDTIATDHCSFNLHGQKDRGRDDFRAIPNGGPGVEHRPVAIATSFEGQLGPEDLCRLMSENPARVFGMYPRKGCLAEGADADVCVWDPQARWTIRAATQHQAVDYTPLEGFEAHGRAKAVFVNGVLAARDGEPTGAQPGRYVPR”, “failed”.
